Results: US20250381223A1 (UTC THERAPEUTICS SHANGHAI, published 2025)
Where a chain is given by its changes, count along the chain named. Where “and” joins values, the source holds several entries; their conditions need not be identical. Equal entries are not always repeated.

B1: A40C2828 (other)
membrane fusion protein with an anti-CD40 antibody part: QVQLVQSGAEVKKPGASVKVSCTASGFNIKDYYVHWVKQAPGQGLEWMGRIDPEDGDSKYAPKFQGKATMTADTSTSTVYMELSSLRSEDTAVYYCTTSYYVGTYGYWGQGTLVTVSSGGGGSGGGGSGGGGSDIQMTQSPSSLSASVGDRVTITCSASSSVSYMLWFQQKPGKAPKLLIYSTSNLASGVPSRFSGSGSGTDFTLTISSLQPEDFATYYCQQRTFYPYTFGGGTKVEIKRTASIEVMYPPPYLDNEKSNGTIIHVKGKHLCPSPLFPGPSKPFWVLVVVGGVLACYSLLVTVAFIIFWVRSKRSRLLHSDYMNMTPRRPGPTRKHYQPYAPPRDFAAYRS
notes: also called new A40C28; New A40C28
B2: anti-mesothelin scFv-M12 (scFv)
scFv: AIRLTQSPSLLSASVGDRVTVTCRASQGGGNYLAWYQQKPGKAPKLLIYGASKLQSGVPSRFSGSGSGTEFTLTISSLQPEDFATYYCQQLNSYPVTFGQGTKVDIKGGGGSGGGGSGGGGSEVQLVESGAEVKKPGASVKVSCKASGYTFTTYYIHWVRQAPGQGLEWMGIINPSSGSTTYTQKFQGRVTMTRDTSTSTVYIELSGLRSEDTAVYYCARGETLRGYFDYWGQGTLVTVSS
notes: On mRNA-electroporated T cells as CAR; also called Meso-CAR (M12)
B3: 40.52 (antibody, V domains shown)
VH: QVQLVQSGAEVKKPGSSVKVSCKASGGTFSSYAISWVRQAPGQGLEWMGMINPSGGTTSYAQKFQGRVTMTRDTSTSTVYMELSSLRPEDTAVYYCARGFRMDQWGQGTLVTVSS
VL: QSALTQPPSASGSPGQSVTISCTGTSSDVGAYNFVSWYQQHPGNAPKLIIYDVRKRPSGIPDRFSASKSGNTASLTVSGLQADDEADYYCSSYAGNNNLVFGGGTKLTVL
notes: Tested as human IgG1 (VH on human CH1-Fc, VL on human CL)
B4: 4052.17 (antibody, V domains shown)
VH: B3 VH
VL: B3 VL with N98E, L99M

Key:
CD40-Fc [1] = molecular target: T1, CD40-Fc ( for this staining reagent …, UniProt P25942); assay: flow cytometry, lentivirus-transduced T cells, CD40-Fc 2 µg/mL + PE-anti-Fc; UTD 0.66, M12 1.16
T1 construct: soluble Fc fusion; Staining reagent, detected with PE-anti-Fc
Procedure: (§1) The transduction efficiency of the CAR-T cells was detected as follows: […] CAR-T cells were plated into each well of a 96-well plate, and the plate was washed once with PBS. 50 μL of Meso-Fc or CD40-Fc protein at a final concentration of 2 μg/mL was added to each well, and the mixture was incubated for 30 min at 4° C. The cells were washed 3 times with PBS, and 50 μL of PE-anti-Fc antibody at a final concentration of 1 μg/mL was added to each well. The mixture was incubated at 4° C. for 30 min. After being washed twice with PBS, the cells were detected by a flow cytometer.

CD40-Fc [2] = molecular target: T1, CD40-Fc; assay: flow cytometry, lentivirus-transduced T cells, CD40-Fc + PE-anti-Fc
Procedure: as §1

[3] = molecular target: T2, mesothelin-Fc recombinant protein (human, UniProt Q13421 296-580, limits assumed); assay: flow cytometry, T cells with CAR mRNA, mesothelin-Fc + PE-anti-IgG-Fc; Control 0.63
T2 construct: construct not described; also called Meso-Fc; not shown: Fc part
Procedure: Mesothelin CAR mRNA obtained in Example 26 above was introduced into A549 tumor cells and T cells by electroporation, and the procedures are as follows: A549 tumor cells and T cells were collected and washed 3 times with the Opti-MEM medium. The cell pellet was resuspended in the Opti-MEM medium and the cell concentration was adjusted to 1×10e7 cells/mL. 10 μg of RNA was aliquoted into 1.5-mL EP tubes, 100 μL of T cells or A549 cells were added, followed by mixing well. 100 μL of cells mixed with RNA were added to the BTX electroporation cuvette and slight tapping was performed to avoid air bubbles. Electroporation was performed using a BTX instrument under the following parameters: for T cells: 500 V voltage, 0.7 ms; for A549 tumor cells: 300 V voltage, 0.5 ms. The cells were then transferred to a pre-warmed medium and cultured at 37° C. The binding of mesothelin CART cells to the mesothelin-Fc recombinant protein was determined by FACS staining. […] T cells without CAR molecules served as the control (“Mock”).

CD40-Fc [4] = molecular target: T3, CD40-Fc (human, UniProt P25942); assay: flow cytometry of T cells electroporated with 2 µg M12 CAR mRNA alone; CD40-Fc + PE-anti-Fc
T3 construct: part fused to Fc; staining reagent of the flow cytometry; also called recombinant human CD40-Fc antigen protein

[5] = molecular target: T4, recombinant human CD40-His antigen protein (human, UniProt P25942 21-193); assay: ELISA; plate coated with CD40-His 2 µg/mL; HRP-anti-hFc
T4 construct: Bought protein; also called recombinant CD40-His protein; CD40 antigen; not shown: His tag
Procedure: The binding activities of the affinity-matured antibodies for antigen CD40 were detected by ELISA. The experimental procedures were as follows: [0637] 1. 50 μL of recombinant CD40-His protein at a concentration of 2 μg/mL was added to each well of an ELISA plate, and the plate was incubated at 4° C. overnight. […] 2. The next day, the ELISA plate was washed 3 times with PBST (containing 0.05% Tween-20). [0639] 3. 250 μL of 5% skim milk powder (dissolved in PBS) was added to each well of the ELISA plate, and the plate was incubated at room temperature for 2 h. [0640] 4. The plate was washed 3 times with PBST, antibodies with different dilution ratios were added to the ELISA plate at 50 μL/well, and the plate was incubated at room temperature for 60 min. [0641] 5. The plate was washed 3 times with PBST, 50 μL of HRP-anti-hFc antibody was added to each well, and the plate was incubated at room temperature for 60 min. [0642] 6. The plate was washed 3 times with PBST, 50 μL of TMB was added to each well, and after color development at room temperature, 50 μL of 2 M HCl was added to each well to stop the reaction. The plate was read at 450 nm.

[6] = molecular target: T4, recombinant human CD40-His antigen …; assay: ELISA; plate coated with CD40-His 2 µg/mL; IgG1, anti-human IgG-Fc (HRP)
Procedure: Therefore, the affinity of the CD40 antibody (in the form of a human classical monoclonal antibody IgG1) was detected by in vitro binding ELISA. The brief experimental procedures were as follows: [0569] (1) Construction of antibody expression plasmid: an antibody VH region was subcloned into a pEF vector containing a human CH1-Fc antibody fragment, and an antibody VL region was subcloned into a pEF vector containing a human CL antibody fragment. [0570] (2) Antibody expression: 33 μg of an antibody heavy chain expression plasmid and 67 μg of an antibody light chain expression plasmid were co-transfected into 293F suspension cells by PEI. After 4 days of culture, the supernatant was collected by centrifugation. [0571] (3) Antibody purification: the protein supernatant and protein A purification medium were incubated on ice for 2 h, and then the supernatant and the purification medium were separated by a gravity column. The purification medium was rinsed thoroughly with 100 mL of pre-cooled PBS to remove impure proteins, and finally, the target protein was eluted from the purification medium with 5-10 mL of 0.1 M Glycine-HCl (pH 2.7), and 1/10 volume of 1 M Tris-HCl (pH 9.0) was immediately added to neutralize the antibody. […] After the protein concentration was measured with A280, the antibody was packaged and cryopreserved at −80° C. […]

[7] = molecular target: T5, CD40 (analyte of the SPR assay) (UniProt P25942 21-193); assay: SPR (Biacore 2000); antibody captured on protein A chip, CD40 3.125-100 nM; heterogeneous ligand model, KD1
T5 construct: Injected at 3.125-100 nM over captured antibody; also called CD40 antigen
Procedure: (§2) The experimental procedures were as follows: The binding affinities between the antibodies and the CD40 antigen were detected by SPR technique using Biacore 2000 (Cytiva, Sweden). All experiments were performed at 25° C. […] CD40 diluted in a 2-fold gradient (3.125-100 nM) was injected into the mobile phase. The association time was set at 90 s and the dissociation time at 300 s. The chip surface was regenerated by incubation with 10 mM Glycine-HCl (pH 1.5) for 30 s to remove the bound CD40 and antibody. The affinity of the antibody was simulated using a biphasic ligand model (heterogenerous ligand mode) in the build-in Biacore Evaluation software of the machine.

[8] = molecular target: T5, CD40 (analyte of the SPR assay); assay: SPR (Biacore 2000); antibody captured on protein A chip, CD40 3.125-100 nM; heterogeneous ligand model, KD2
Procedure: as §2

[9] = molecular target: T5, CD40 (analyte of the SPR assay); assay: SPR (Biacore 2000); antibody captured on protein A chip, CD40 3.125-100 nM; heterogeneous ligand model, ka1
Procedure: as §2

[10] = molecular target: T5, CD40 (analyte of the SPR assay); assay: SPR (Biacore 2000); antibody captured on protein A chip, CD40 3.125-100 nM; heterogeneous ligand model, ka2
Procedure: (§3) The affinity kinetics of the affinity-matured antibodies were detected using surface plasmon resonance (SPR) technique.
as §2

[11] = molecular target: T5, CD40 (analyte of the SPR assay); assay: SPR (Biacore 2000); antibody captured on protein A chip, CD40 3.125-100 nM; heterogeneous ligand model, kd1
Procedure: as §3, §2

[12] = molecular target: T5, CD40 (analyte of the SPR assay); assay: SPR (Biacore 2000); antibody captured on protein A chip, CD40 3.125-100 nM; heterogeneous ligand model, kd2
Procedure: as §2

T2 sequence (Q13421 other isoform, or with tags, fused parts or gaps limits assumed): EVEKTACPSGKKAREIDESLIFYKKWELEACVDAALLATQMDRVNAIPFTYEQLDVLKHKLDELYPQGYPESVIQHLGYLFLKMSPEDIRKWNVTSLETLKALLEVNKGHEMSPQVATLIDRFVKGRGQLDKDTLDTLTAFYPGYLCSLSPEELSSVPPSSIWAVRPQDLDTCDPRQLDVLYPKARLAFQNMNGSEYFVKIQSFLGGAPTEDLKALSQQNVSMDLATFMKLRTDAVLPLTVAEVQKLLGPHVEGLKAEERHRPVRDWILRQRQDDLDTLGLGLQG

Binder | percent of cells in the gate (CD40-Fc [1]) | binding result (CD40-Fc [2]) | percent of cells in the gate [3] | binding result (CD40-Fc [4]) | EC50 [5] | EC50 [6] | Kd [7] | Kd [8] | kon [9] | kon [10] | koff [11] | koff [12]
B1 | 39.8% | – | – | – | – | – | – | – | – | – | – | –
B2 | – | no binding (tested: 2 µg/mL) | 86.5% | no binding | – | – | – | – | – | – | – | –
B3 | – | – | – | – | 0.0975 µg/mL | 0.0492 µg/mL and 344 nM | 0.864 nM | 103 nM | 1.34e+06 M⁻¹ s⁻¹ | 861000 M⁻¹ s⁻¹ | 0.00115 s⁻¹ | 0.0885 s⁻¹
B4 | – | – | – | – | 0.0944 µg/mL | – | 0.686 nM | 48.4 nM | 1.49e+06 M⁻¹ s⁻¹ | 748000 M⁻¹ s⁻¹ | 0.00102 s⁻¹ | 0.0362 s⁻¹
